Key:
HLA-B*46:01 = assay: IEDB peptide-MHC binding, purified MHC/direct/fluorescence; filed as Kd, often an IC50 or EC50 that approximates it; ≥ and ≤ were set here for values at or beyond the usual limits of such assays
HLA-A*26:01 [1] = assay: as above
HLA-B*18:01 = assay: as above
HLA-A*02:19 = assay: as above
HLA-A*02:11 = assay: as above
HLA-A*03:01 = assay: as above
HLA-B*15:01 = assay: as above
HLA-A*02:01 = assay: as above
HLA-A*69:01 = assay: as above
HLA-A*23:01 = assay: as above
HLA-A*24:03 = assay: as above
HLA-B*27:03 [2] = assay: as above
HLA-A*02:16 = assay: as above
HLA-A*29:02 = assay: as above
HLA-B*57:01 = assay: as above
HLA-A*68:02 = assay: as above
HLA-A*02:12 = assay: as above
HLA-B*51:01 [3] = assay: as above
HLA-A*02:03 = assay: as above
HLA-B*15:17 [4] = assay: as above
HLA-B*39:01 [5] = assay: as above; details: source organism: Vibrio cholerae O395
HLA-A*26:01 [6] = assay: IEDB peptide-MHC binding, purified MHC/competitive/fluorescence; filed as Kd, often an IC50 or EC50 that approximates it; ≥ and ≤ were set here for values at or beyond the usual limits of such assays; details: source organism: Lechiguanas virus
HLA-B*39:01 [7] = assay: as above; details: source organism: Lechiguanas virus
HLA-B*27:03 [8] = assay: as above; details: source organism: Lechiguanas virus
HLA-B*51:01 [9] = assay: as above; details: source organism: Lechiguanas virus
HLA-B*15:17 [10] = assay: as above; details: source organism: Lechiguanas virus
HLA-B*40:01 = assay: IEDB peptide-MHC binding, purified MHC/direct/fluorescence; filed as Kd, often an IC50 or EC50 that approximates it; ≥ and ≤ were set here for values at or beyond the usual limits of such assays; details: source organism: Orthohantavirus andesense
HLA-A*11:01 = assay: as above; details: source organism: Orthohantavirus andesense
HLA-B*08:01 = assay: as above; details: source organism: Orthohantavirus andesense
HLA-B*27:05 = assay: as above; details: source organism: Orthohantavirus andesense
HLA-B*48:01 = assay: as above; details: source organism: Orthohantavirus andesense
HLA-B*44:02 = assay: as above; details: source organism: Orthohantavirus andesense
HLA-B*07:02 = assay: as above; details: source organism: Orthohantavirus andesense
HLA-B*58:01 = assay: as above; details: source organism: Orthohantavirus andesense
HLA-A*01:01 = assay: as above; details: source organism: Orthohantavirus andesense
HLA-A*31:01 = assay: as above; details: source organism: Orthohantavirus andesense
[11] = source organism: Giardia lamblia ATCC 50803
[12] = source organism: Vibrio cholerae O395
[13] = source organism: Orthohantavirus andesense
[14] = source organism: Rio Mamore hantavirus

Sequence: MHDPHSIPL
- Kd (HLA-B*46:01; [11]): ≥ 20 µM
- Kd (HLA-A*26:01 [1]; [11]): ≥ 20 µM
- Kd (HLA-B*18:01; [11]): ≥ 20 µM
- Kd (HLA-A*02:19; [11]): ≥ 20 µM
- Kd (HLA-A*02:11; [11]): ≥ 20 µM
- Kd (HLA-A*03:01; [11]): ≥ 20 µM
- Kd (HLA-B*15:01; [11]): ≥ 20 µM
- Kd (HLA-A*02:01; [11]): ≥ 20 µM
- Kd (HLA-A*69:01; [11]): ≥ 20 µM
- Kd (HLA-A*23:01; [11]): ≥ 20 µM
- Kd (HLA-A*24:03; [11]): ≥ 20 µM
- Kd (HLA-B*27:03 [2]; [11]): ≥ 20 µM
- Kd (HLA-A*02:16; [11]): ≥ 20 µM
- Kd (HLA-A*29:02; [11]): ≥ 20 µM
- Kd (HLA-B*57:01; [11]): ≥ 20 µM
- Kd (HLA-A*68:02; [11]): ≥ 20 µM
- Kd (HLA-A*02:12; [11]): ≥ 20 µM
- Kd (HLA-B*51:01 [3]; [11]): ≥ 20 µM
- Kd (HLA-A*02:03; [11]): ≥ 20 µM
- Kd (HLA-B*15:17 [4]; [11]): ≥ 20 µM

Sequence: VVSEIDLQW
- Kd (HLA-B*46:01; [12]): ≥ 20 µM
- Kd (HLA-A*26:01 [1]; [12]): ≥ 20 µM
- Kd (HLA-B*18:01; [12]): ≥ 20 µM
- Kd (HLA-A*02:19; [12]): ≥ 20 µM
- Kd (HLA-A*02:11; [12]): ≥ 20 µM
- Kd (HLA-A*03:01; [12]): ≥ 20 µM
- Kd (HLA-B*15:01; [12]): ≥ 20 µM
- Kd (HLA-A*02:01; [12]): ≥ 20 µM
- Kd (HLA-A*69:01; [12]): ≥ 20 µM
- Kd (HLA-B*39:01 [5]): ≥ 20 µM
- Kd (HLA-A*23:01; [12]): ≥ 20 µM
- Kd (HLA-A*24:03; [12]): ≥ 20 µM
- Kd (HLA-B*27:03 [2]; [12]): ≥ 20 µM
- Kd (HLA-A*02:16; [12]): ≥ 20 µM
- Kd (HLA-A*29:02; [12]): ≥ 20 µM
- Kd (HLA-B*57:01; [12]): ≥ 20 µM
- Kd (HLA-A*68:02; [12]): ≥ 20 µM
- Kd (HLA-A*02:12; [12]): ≥ 20 µM
- Kd (HLA-B*51:01 [3]; [12]): ≥ 20 µM
- Kd (HLA-A*02:03; [12]): ≥ 20 µM
- Kd (HLA-B*15:17 [4]; [12]): 0.002 µM

Sequence: YRRKLTNPA
- Kd (HLA-A*26:01 [6]): ≥ 20 µM
- Kd (HLA-B*39:01 [7]): ≥ 20 µM
- Kd (HLA-B*27:03 [8]): ≥ 20 µM
- Kd (HLA-B*51:01 [9]): ≥ 20 µM
- Kd (HLA-B*15:17 [10]): ≥ 20 µM
- Kd (HLA-B*46:01; [13]): ≥ 20 µM
- Kd (HLA-B*18:01; [13]): ≥ 20 µM
- Kd (HLA-A*03:01; [13]): ≥ 20 µM
- Kd (HLA-B*15:01; [13]): ≥ 20 µM
- Kd (HLA-B*40:01): ≥ 20 µM
- Kd (HLA-A*02:01; [13]): ≥ 20 µM
- Kd (HLA-A*69:01; [13]): ≥ 20 µM
- Kd (HLA-A*11:01): ≥ 20 µM
- Kd (HLA-B*08:01): 1.12 µM
- Kd (HLA-A*23:01; [14]): ≥ 20 µM
- Kd (HLA-A*24:03; [14]): ≥ 20 µM
- Kd (HLA-B*27:05): ≥ 20 µM
- Kd (HLA-B*48:01): ≥ 20 µM
- Kd (HLA-A*29:02; [13]): ≥ 20 µM
- Kd (HLA-B*44:02): ≥ 20 µM
- Kd (HLA-B*07:02): ≥ 20 µM
- Kd (HLA-B*57:01; [13]): ≥ 20 µM
- Kd (HLA-B*58:01): ≥ 20 µM
- Kd (HLA-A*01:01): ≥ 20 µM
- Kd (HLA-A*31:01): ≥ 20 µM
- Kd (HLA-A*68:02; [14]): ≥ 20 µM
- Kd (HLA-A*02:12; [14]): ≥ 20 µM
